Thrombin time (TT) clotting time of human plasma with bovine thrombin; hirudin HV1 and thrombin time (TT) clotting time of human plasma with bovine thrombin; HLF1V data for two substances are collected here from publication PMC12388516.

For this test, the target named is bovine thrombin (thrombin reagent) (bovine).

“recombinant hirudin HV1 expressed in E. coli strain SHuffle T7 (natural protein)” displayed a thrombin time (TT) clotting time of human plasma with bovine thrombin; hirudin HV1 at 0.32 and 3.2 µmol/L; expressed at 30 °C; cut-off 300 s greater than 300 s.

“recombinant hirudin-like factor HLF1V expressed in E. coli strain SHuffle T7 (natural protein)” gave a thrombin time (TT) clotting time of human plasma with bovine thrombin; HLF1V at 0.32 and 3.2 µmol/L; expressed at 30 °C; cut-off 300 s greater than 300 s.
